From article PMC5746516 come the findings set out here.

This experiment has as its target Protein phosphatase 1 (PP1) (UniProt P62136). As to the kind of experiment: co-IP.
Sequence of UniProt P62136 (P62136 whole entry): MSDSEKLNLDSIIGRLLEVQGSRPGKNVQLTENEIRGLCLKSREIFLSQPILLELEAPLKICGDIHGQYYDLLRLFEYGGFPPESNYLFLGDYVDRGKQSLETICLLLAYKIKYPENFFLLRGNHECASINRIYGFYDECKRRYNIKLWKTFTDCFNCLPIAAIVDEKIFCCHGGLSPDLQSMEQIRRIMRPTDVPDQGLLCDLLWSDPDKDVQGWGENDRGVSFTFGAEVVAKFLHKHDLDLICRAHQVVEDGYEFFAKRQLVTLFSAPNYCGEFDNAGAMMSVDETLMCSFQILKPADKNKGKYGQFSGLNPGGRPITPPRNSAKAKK

B1: NBCe1-B PP1-binding consensus residue deletion mutant (deletion of amino acids 922-927), GFP-tagged (natural protein)
chain: MEDEAVLDRGASFLKHVCDEEEVEGHHTIYIGVHVPKSYRRRRRHKRKTGHKEKKEKERISENYSDKSDIENADESSSSILKPLISPAAERIRFILGEEDDSPAPPQLFTELDELLAVDGQEMEWKETARWIKFEEKVEQGGERWSKPHVATLSLHSLFELRTCMEKGSIMLDREASSLPQLVEMIVDHQIETGLLKPELKDKVTYTLLRKHRHQTKKSNLRSLADIGKTVSSASRMFTNPDNGSPAMTHRNLTSSSLNDISDKPEKDQLKNKFMKKLPRDAEASNVLVGEVDFLDTPFIAFVRLQQAVMLGALTEVPVPTRFLFILLGPKGKAKSYHEIGRAIATLMSDEVFHDIAYKAKDRHDLIAGIDEFLDEVIVLPPGEWDPAIRIEPPKSLPSSDKRKNMYSGGENVQMNGDTPHDGGHGGGGHGDCEELQRTGRFCGGLIKDIKRKAPFFASDFYDALNIQALSAILFIYLATVTNAITFGGLLGDATDNMQGVLESFLGTAVSGAIFCLFAGQPLTILSSTGPVLVFERLLFNFSKDNNFDYLEFRLWIGLWSAFLCLILVATDASFLVQYFTRFTEEGFSSLISFIFIYDAFKKMIKLADYYPINSNFKVGYNTLFSCTCVPPDPANISISNDTTLAPEYLPTMSSTDMYHNTTFDWAFLSKKECSKYGGNLVGNNCNFVPDITLMSFILFLGTYTSSMALKKFKTSPYFPTTARKLISDFAIILSILIFCVIDALVGVDTPKLIVPSEFKPTSPNRGWFVPPFGENPWWVCLAAAIPALLVTILIFMDQQITAVIVNRKEHKLKKGAGYHLDLFWVAILMVICSLMALPWYVAATVISIAHIDSLKMETETSAPGEQPKFLGVREQRVTGTLVFILTGLSVFMAPILKFIPMPVLYGVFLYMGVASLNGVQLLLMPLKHQPDFIYLRHVPLRRVHLFTFLQVLCLALLWILKSTVAAIIFPVMILALVAVRKGMDYLFSQHDLSFLDDVIPEKDKKKKEDEKKKKKKKGSLDSDNDDSDCPYSEKVPSIKIPMDIMEQQPFLSDSKPSDRERSPTFLERHTSC
B1: the interaction with PP1 by co-IP densitometry, percent of wild type is 18.2%.

B2: NBCe1-B 3-point mutant (F922A, R925A, and K927A), GFP-tagged (natural protein)
chain: MEDEAVLDRGASFLKHVCDEEEVEGHHTIYIGVHVPKSYRRRRRHKRKTGHKEKKEKERISENYSDKSDIENADESSSSILKPLISPAAERIRFILGEEDDSPAPPQLFTELDELLAVDGQEMEWKETARWIKFEEKVEQGGERWSKPHVATLSLHSLFELRTCMEKGSIMLDREASSLPQLVEMIVDHQIETGLLKPELKDKVTYTLLRKHRHQTKKSNLRSLADIGKTVSSASRMFTNPDNGSPAMTHRNLTSSSLNDISDKPEKDQLKNKFMKKLPRDAEASNVLVGEVDFLDTPFIAFVRLQQAVMLGALTEVPVPTRFLFILLGPKGKAKSYHEIGRAIATLMSDEVFHDIAYKAKDRHDLIAGIDEFLDEVIVLPPGEWDPAIRIEPPKSLPSSDKRKNMYSGGENVQMNGDTPHDGGHGGGGHGDCEELQRTGRFCGGLIKDIKRKAPFFASDFYDALNIQALSAILFIYLATVTNAITFGGLLGDATDNMQGVLESFLGTAVSGAIFCLFAGQPLTILSSTGPVLVFERLLFNFSKDNNFDYLEFRLWIGLWSAFLCLILVATDASFLVQYFTRFTEEGFSSLISFIFIYDAFKKMIKLADYYPINSNFKVGYNTLFSCTCVPPDPANISISNDTTLAPEYLPTMSSTDMYHNTTFDWAFLSKKECSKYGGNLVGNNCNFVPDITLMSFILFLGTYTSSMALKKFKTSPYFPTTARKLISDFAIILSILIFCVIDALVGVDTPKLIVPSEFKPTSPNRGWFVPPFGENPWWVCLAAAIPALLVTILIFMDQQITAVIVNRKEHKLKKGAGYHLDLFWVAILMVICSLMALPWYVAATVISIAHIDSLKMETETSAPGEQPKFLGVREQRVTGTLVFILTGLSVFMAPILKFIPMPVLYGVFLYMGVASLNGVQAMDALALLLMPLKHQPDFIYLRHVPLRRVHLFTFLQVLCLALLWILKSTVAAIIFPVMILALVAVRKGMDYLFSQHDLSFLDDVIPEKDKKKKEDEKKKKKKKGSLDSDNDDSDCPYSEKVPSIKIPMDIMEQQPFLSDSKPSDRERSPTFLERHTSC
In turn, B2 gave an interaction with PP1 by co-IP densitometry, percent of wild type of 28.9%.
